The values below come from patent US6994959, “G-rich oligo aptamers and methods of modulating an immune response” (Valeant Research & Development).

Series [1] addresses T1, Sp1 (UniProt P08047 P08047:2-785). Briefly: competition; control oligo did not compete; about 70-100 molar excess. The conditions noted are these: tags: Promega purified Sp1. Here is the method:
(§1) In an effort to restrict the precise Sp1 binding region in 28b to the G-rich motif in the CD28 promoter region –197 to +28, we synthesized a double stranded (ds) 30mer oligo called 28b oligo (Seq #1 Table 1) which contains the 12mer GGGGAGGAGGGG within its sequence. We hypothesized that this was a Sp1 binding site in the CD28 promoter region. Following 32P-labeling, 28b oligo was incubated with Sp1 extract and indeed they bind to each other (FIG. 5, band A, lane 2 and 3). Competition with cold ds 28b oligo caused the band to disappear showing indeed that the binding was specific to Sp1 (lane 4). […] The consequence of this interaction is the prevention of Sp1 binding to the Sp1 site at –51 to –22 in the promoter region and which inhibits Sp1-mediated transcription of the CD28 gene and decreases expression of the mature CD28 protein.

The target in series [2] is T1, Sp1. Briefly: competition; competes with 32P ds 28b oligo; about 70-100 molar excess. As to conditions: tags: Promega purified Sp1. Here is the method: as §1
The target of series [3] is T1, Sp1. Briefly: EMSA; band A; competed by cold ds 28b oligo; room temperature. As to conditions: tags: Promega purified Sp1; label: 32P. The protocol: as §1

T1 sequence (P08047 2-785, one chain of several): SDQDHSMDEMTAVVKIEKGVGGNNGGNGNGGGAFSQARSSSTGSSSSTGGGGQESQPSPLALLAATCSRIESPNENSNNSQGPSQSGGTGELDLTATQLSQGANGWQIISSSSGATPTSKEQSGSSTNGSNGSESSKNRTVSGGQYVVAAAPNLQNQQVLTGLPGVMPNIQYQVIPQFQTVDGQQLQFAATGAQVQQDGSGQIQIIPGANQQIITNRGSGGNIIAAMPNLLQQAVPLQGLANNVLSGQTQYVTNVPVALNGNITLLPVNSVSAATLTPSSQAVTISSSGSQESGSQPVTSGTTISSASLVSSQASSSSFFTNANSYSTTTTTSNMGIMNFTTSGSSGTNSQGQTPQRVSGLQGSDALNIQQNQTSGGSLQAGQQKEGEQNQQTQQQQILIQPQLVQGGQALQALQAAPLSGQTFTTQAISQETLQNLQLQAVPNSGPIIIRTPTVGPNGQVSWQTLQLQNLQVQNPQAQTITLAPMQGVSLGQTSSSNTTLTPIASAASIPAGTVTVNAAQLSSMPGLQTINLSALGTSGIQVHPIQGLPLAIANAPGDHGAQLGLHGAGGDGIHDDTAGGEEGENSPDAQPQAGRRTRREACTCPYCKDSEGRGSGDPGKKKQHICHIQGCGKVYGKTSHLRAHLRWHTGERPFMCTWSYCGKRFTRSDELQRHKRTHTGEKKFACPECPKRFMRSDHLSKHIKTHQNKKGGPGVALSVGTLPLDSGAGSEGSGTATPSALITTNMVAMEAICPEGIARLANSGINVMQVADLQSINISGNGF

For the molecule TTCCAGCCCCTCCTCCCC (ssDNA, PS all linkages) [ICN 16476], the binding result in series [1] was “no binding”.

For the molecule TTGGAGGGGGTGGTGGGG (ssDNA, PS all linkages) [ICN 16064], in series [2], the binding result was “binds”.

As for GGGGAGGAGGGGCTGGAA (ssDNA, PS all linkages) [ICN 16481], the binding result in series [2] is on record as “binds”.

B1: 28b oligo (-51 to -22) (dsDNA)
DNA 1: GGGTTCCTCGGGGAGGAGGGGCTGGAACCC
DNA 2: GGGTTCCAGCCCCTCCTCCCCGAGGAACCC
As to B1, the binding result in series [3] is recorded as “binds”.
